From patent US20200216532A1 (Ablynx, published 2020)

B1: SEQ ID NO: 73 (VHH)
VHH: EVQLVESGGGLVQPGGSLRLSCAASRSIGRLDRMGWYRHRPGEPRELVATITGGSSINYGDSVKGRFTISIDNSKNTVYLQMNSLRPEDTAVYYCNFNKYVTSRDTWGQGTLVTVGG
notes: Ex. 8; S112G, S113G
B2: SEQ ID NO: 75 (VHH)
VHH: EVQLVESGGGLVQPGGSLRLSCAASRSIGRLDRMGWYRHRPGEPRELVATITGGSSINYGDSVKGRFTISIDNSKNTVYLQMNSLRPEDTAVYYCNFNKYVTSRDTWGQGTLVTVSS
notes: Ex. 8
B3: SEQ ID NO: 79 (VHH)
VHH: EVQLVESGGGLVQPGGSLRLSCAASRSIGRLDRMGWYRHRPGEPRELVATITGGSSINYGDSVKGRFTISIDNSKNTVYLQMNSLRPEDTAVYYCNFNKYVTSRDTWGQGTLVTVSS
notes: Ex. 8
B4: SEQ ID NO: 76 (VHH)
VHH: EVQLVESGGGLVQPGGSLRLSCAASRSIGRLDRMGWYRHRPGEPRELVATITGGSSINYGDSVKGRFTISIDNSKNTVYLQMNSLRPEDTAVYYCNFNKYVTSRDTWGQGTLVTVSS
notes: Ex. 8
B5: SEQ ID NO: 88 (VHH)
VHH: EVQLVESGGGSVQPGGSLRLSCAASRSIGRLDRMGWYRHRPGEPRELVATITGGSSINYGDSVKGRFTISIDNSKNTVYLQMNSLRPEDTAVYYCNFNKYVTSRDTWGQGTLVQVSS
notes: Ex. 8; L11S, T110Q
B6: SEQ ID NO: 77 (VHH)
VHH: EVQLVESGGGLVQPGGSLRLSCAASRSIGRLDRMGWYRHRPGEPRELVATITGGSSINYGDSVKGRFTISIDNSKNTVYLQMNSLRPEDTAVYYCNFNKYVTSRDTWGQGTLVTVSS
notes: Ex. 8

Key:
Experiment in all cases: SPR, interference factor immobilized
[1] = target: T1, purified interference factor(s), Donor B
T1 construct: also called interference in serum from Donor B

[2] = target: T2, purified interference factor(s), Donor C
T2 construct: also called interference in serum from Donor C

[3] = target: T3, purified interference factor(s), Donor A
T3 construct: also called interference in serum from Donor A

Row | Binder | % of binding of reference (=100%) [1] [%] | % of binding of reference (=100%) [2] [%] | % of binding of reference (=100%) [3] [%]
1 | B1 | 8 | 9 | 6
2 | B2 | 11 | 16 | 1
3 | B3 | 17 | 13 | 1
4 | B4 | 17 | 20 | 2
5 | B5 | 5 | 11 | 1
6 | B6 | 12 | 13 | 2
